Reference: article PMC8377490

Tested on: C[C@@H]1O[C@@H](O[C@H]2[C@H](O)[C@@H](O)C(O)O[C@@H]2C(=O)O)[C@H](O)[C@H](O)[C@H]1O
Experiment: purified protein
Conditions: 50 mM Hepes-NaOH pH 7.0, 30 °C, 20 nM enzyme

Substance: FoRham1 (GA-specific L-rhamnose-α-1,4-D-glucuronate lyase) (Fusarium oxysporum)
- Km: 2800 ± 200 µM
- kcat: 95.5 s⁻¹
- kcat/Km: 34100 M⁻¹ s⁻¹
